Test system: trypsin
Assay: Phage TRF binding assay on immobilised biotinylated trypsin (monoclonal phage ELISA)
Settings: for % reduction in binding signal: GlyAla mutant (Pro3, Arg4 of EETI-II substituted) versus the clone, monoclonal phage; for Tryspin binding signal (FU): monoclonal phage supernatant, biotinylated trypsin on neutravidin plates
Experimental: Phage display technology facilitates isolation of binders to any given target from large combinatorial repertoires based on proteins and peptides that can be presented on the surface of filamentous phage^105. In order to isolate functional knottin-antibody fusions from the KnotBody libraries multiple rounds of phage display selections on trypsin (cognate antigen for the EETI-II donor) were carried out. Phage particles were prepared by rescuing KnotBody libraries using trypsin cleavable helper phage ^102,106Two rounds of phage display selections were performed on 10 µg/ml biotinylated trypsin immobilised on Streptavidin (for Round-1) or Neutravidin (for round-2) coated Maxisorp™ immunotubes (Thermo Scientific, Cat No. 444202). In both rounds of selection, phage libraries were pre-incubated with streptavidin coated paramagnetic beads (Thermo Fisher Scientific, Cat. No. 11205D). These beads were removed prior to the addition the phage to the antigen tubes to limit the streptavidin binders entering the selection. Polyclonal phage preparations from round-2 selection outputs were analysed for trypsin binding using a time resolved fluorescence (TRF) binding assay. In this assay, polyclonal phage binding to biotinylated trypsin immobilised on neutravidin (Thermo Fisher Scientific, Cat. No 31000) coated Maxisorp™ plates (Thermo Scientific, Cat. No. 437111) was detected using a mouse anti-M13 antibody (GE Healthcare, Cat. No. 27-9420-01) followed by europium conjugated anti-mouse antibody (Perkin Elmer, Cat. No. AD0124).
In order to identify monoclonal KnotBodies with desired binding characteristics, 94 individual clones derived from 2 rounds of selection using EETI-II CDR1 or CDR2 libraries were picked into 96 well culture plates and phage were prepared from each clone. Methods for screening by monoclonal phage ELISA are known in the art^107. […] Clones with >3x binding signal above background were picked as positive clones and sequenced to identify unique clones. 14 and 42 unique binders were identified from EETI-II CDR1 and EETI-II CDR2 libraries respectively (Table 1). 18 binders from the EETI-II CDR2 library and 3 binders from the EETI-II-CDR1 library were chosen for further characterisation based on their VL and linker sequence diversity. These binders were assigned new clone identification numbers (Table 2).
The trypsin binding capability of EETI-II is attributed to proline (Pro3) and arginine (Arg4) residues present in its loop1 (GCPRILMRC; SEQ ID NO: 68). […] Monoclonal phage was prepared from the 21 selected clones and their mutant equivalents. […] Replacement of the trypsin-binding residues of EETI-II abolished the ability of all KnotBody clones to bind to trypsin (Table 3). In order to confirm that the loss of trypsin binding was not due to reduced expression or display of pIII fusion phage was prepared from 11 (randomly chosen) KnotBodies and their GlyAla variants were analysed on a western blot using an antibody which recognises the product of gene 3 (pIII) using an anti-pIII antibody (MoBiTec GmbH) (FIG. 6).
Bovine antibodies have been described with natural ultra-long VH CDR3s containing a solvent exposed double stranded antiparallel sheet approximately 20 A° in length (referred to as the stalk) presenting a folded domain stabilised by 3 disulfide bonds (referred to as the Knob)^10. Zhang and colleagues have shown that the Knob domains of these cow ultra-long VH CDR3 antibodies (ULVC-Ab) can be replaced with other folded proteins such as erythropoietin^13. In this example, we assess the ability of a cow ULVC-Ab to present functional knottin fusions on phage in comparison with a KnotBody. In order to create a Knottin-cow UCLA fusion, the sequence between the first and the last cysteines of the knob region of the Cow ULVC-Ab BLV1H12 was replaced with the sequence of the trypsin binding knottin; EETI-II (EETI-II cow ULVC-Ab). A gene fragment encoding this construct was synthesised (Integrated DNA technologies, Table 21). […]

B1: KB_A07: EETI-II knottin fused into VL CDR2, D1A12 VH; parental KnotBody, isotype control (antibody, V domains shown)
VH: EVQLVESGGGLVRPGGSLRLSCAASGFTFSSYAMSWVRQAPGKGLEWVSAISGSGGSTYYADSVKGRFTISRDNTKNSLYLQMTSLRADDTAFYYCVKDFGPGYGTGWFDYWGPGTLVTVSS
VL: DIQMTQSPSSLSASVGDRVTITCRASQSISSYLNWYQQKPGKAPKLLIYAAGVCPRILMRCKQDSDCLAGCVCGPNGFCGSRSGVPSRFSGSGSGTDFTLTISSLQPEDFATYYCQQGASPPYTFGQGTKVEIKRT
  % reduction in binding signal: 98%
  Tryspin binding signal (FU): 21448 FU

B2: KB_A12: EETI-II knottin fused into VL CDR2, D1A12 VH; parental KnotBody, isotype control (antibody, V domains shown)
VH: B1 VH
VL: QSVLTQPPSVSEAPRQRVTITCSGSSSNIGNNAVNWYQQLPGKAPKLLIYAAGRCPRILMRCKQDSDCLAGCVCGPNGFCGANSGVSDRFSAAKSGTSASLAINGLRSEDEADYYCAAWDDSLNGYVFGTGTKLTVLGQP
  % reduction in binding signal: 99%
  Tryspin binding signal (FU): 69349 FU
PEG precipitated phage, compared to EETI-II cow ULVC-Ab, FIG. 25
  phage binding to trypsin: superior binding to trypsin

From US20230331827A1, “POTASSIUM CHANNEL INHIBITORS” (priority 2017, published 2023)
